Experiment [1] has as its target T1, human fXII with the kringle domain replaced with the corresponding domain from HGFA (human, UniProt P00748 20-216; Q04756 286-367; P00748 296-615, limits assumed).
T1 construct: Expressed in human fibroblasts (HEK293) and blotted from conditioned medium; also called fXII/HGFA kringle domain chimera; KNG
T1 sequence (looked up): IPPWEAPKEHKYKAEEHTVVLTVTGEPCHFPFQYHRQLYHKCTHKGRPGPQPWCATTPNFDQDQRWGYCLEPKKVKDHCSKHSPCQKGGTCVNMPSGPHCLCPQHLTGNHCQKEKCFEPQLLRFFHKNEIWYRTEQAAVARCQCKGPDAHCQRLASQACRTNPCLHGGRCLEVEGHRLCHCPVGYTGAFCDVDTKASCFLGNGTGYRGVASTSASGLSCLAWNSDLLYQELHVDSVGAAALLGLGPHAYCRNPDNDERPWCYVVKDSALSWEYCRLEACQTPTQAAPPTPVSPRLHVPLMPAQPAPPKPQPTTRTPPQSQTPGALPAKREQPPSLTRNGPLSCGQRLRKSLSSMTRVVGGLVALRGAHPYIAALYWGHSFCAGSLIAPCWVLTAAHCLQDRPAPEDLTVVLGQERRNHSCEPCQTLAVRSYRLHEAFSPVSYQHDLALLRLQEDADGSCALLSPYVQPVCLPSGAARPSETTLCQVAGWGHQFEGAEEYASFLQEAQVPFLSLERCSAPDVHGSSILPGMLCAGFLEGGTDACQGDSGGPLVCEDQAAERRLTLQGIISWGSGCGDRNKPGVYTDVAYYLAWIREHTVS
The experiment can be described thus: Western blot after SDS-PAGE. An excerpt: (§1) AB043 and AB042 both recognize baboon and human fXII, indicating they can be used for studies in baboon thrombosis models. […] Chimeras in which individual fXII domains were replaced with those of HGFA were expressed in human fibroblasts.
For orientation: Immunoblotting shows a protein as a band on a membrane.

For experiment [2], the target named is T2, human fXII with the EGF2 domain replaced with the corresponding domain from HGFA (human, UniProt P00748 20-173; Q04756 241-279; P00748 211-615, limits assumed).
T2 construct: Expressed in human fibroblasts (HEK293) and blotted from conditioned medium; also called fXII/HGFA chimera for the EGF2 domain
T2 sequence (looked up): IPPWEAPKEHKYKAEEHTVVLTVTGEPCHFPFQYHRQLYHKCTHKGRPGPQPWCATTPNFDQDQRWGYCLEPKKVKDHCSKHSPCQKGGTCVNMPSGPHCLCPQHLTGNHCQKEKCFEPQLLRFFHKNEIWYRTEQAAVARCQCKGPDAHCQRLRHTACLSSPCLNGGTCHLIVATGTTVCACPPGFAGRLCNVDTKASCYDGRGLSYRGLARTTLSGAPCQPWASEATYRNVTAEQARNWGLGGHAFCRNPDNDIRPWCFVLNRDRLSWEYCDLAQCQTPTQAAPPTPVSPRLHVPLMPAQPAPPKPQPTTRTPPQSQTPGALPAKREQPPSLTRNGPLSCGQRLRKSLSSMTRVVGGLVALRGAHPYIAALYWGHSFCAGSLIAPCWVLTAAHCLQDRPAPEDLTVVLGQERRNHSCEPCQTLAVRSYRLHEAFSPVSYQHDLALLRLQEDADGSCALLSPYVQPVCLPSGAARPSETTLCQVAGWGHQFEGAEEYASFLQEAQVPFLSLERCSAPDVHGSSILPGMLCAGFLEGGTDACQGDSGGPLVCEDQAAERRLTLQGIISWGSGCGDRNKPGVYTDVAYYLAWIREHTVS
In words: Western blot after SDS-PAGE.
Excerpt: as §1

B1: monoclonal anti-human fXII antibody AB042 (antibody, V domains shown)
VH: EVQLQQSGAELVRPGASVKLSCTASGFNIKDDYMHWVKQRPEQGLEWIGWIDPENGDTEYASKFQGKATITSDTSSNTAYLQLSSLTSEDTAVYYCTENYYGSSFFAYWGQGTLVTVSA
VL: DIVMTQATPSVPVTPGESVSISCRSSKSLLHSNGITYLYWFLQRPGQSPQRLIYYMSNLASGVPDRFSGRGSGTDFTLRISRVEAEDVGVYYCMQSLEYPYTFGGGTKLEIKR
notes: Mouse hybridoma IgG raised in fXII knockout mice immunized with human fXII
With B1, the binding result in experiment [1] and in experiment [2] was “no binding” in each case.

The record behind these values is patent US20150315292A1 (VANDERBILT UNIVERSITY, published 2015).
